Holding throughout (assay): ELASA; […] (0.5 M NaCl, 10 mM Tris-HCl, 1 mM MgCl2, pH 7.5-7.6), 1 h, RT (~25 C); […]
Conditions in all cases: label: 5'-biotin

The target in data set [1] is T1, CCHF Altamura Gn 611 peptide (Crimean-Congo hemorrhagic fever virus, UniProt Q8JSZ3).
T1 chain: TQEGRGHVKLSRGSE

The target of data set [2] is CCHF 11E7b peptide (Crimean-Congo hemorrhagic fever virus, UniProt Q8JSZ3).
The target of data set [3] is CCHF 11E7a peptide (Crimean-Congo hemorrhagic fever virus, UniProt Q8JSZ3).
The target of data set [4] is CCHF 11E7c peptide (Crimean-Congo hemorrhagic fever virus, UniProt Q8JSZ3).

B1: Gn6-15R (ssDNA)
DNA: ATCCGTCACACCTGCTCTGGGCCAGGTAAGAAGATGCGAGCTGTGTAATACATGTGGTGTTGGCTCCCGTAT
With B1, the binding signal in data set [1] was determined as 1.63 A405.

B2: Gn6-6R (ssDNA)
DNA: ATCCGTCACACCTGCTCTGCATATAAATTTTTAACAAGGGACTGGTAACTATCCTGGTGTTGGCTCCCGTAT
For the molecule B2, the binding signal in data set [1] is 1.64 A405.

B3: E7b-5R (ssDNA)
DNA: ATCCGTCACACCTGCTCTTGGGCATCAGCGGGCGATGCATGCGATAAATTAGTGTGGTGTTGGCTCCCGTAT
Molecule B3 yielded a binding signal in data set [2] of 1.86 A405.

B4: E7a-5R (ssDNA)
DNA: ATCCGTCACACCTGCTCTTGACACGCGTACGGGGTCCGGACATGTCATAACGGACTGGTGTTGGCTCCCGTAT
Turning to B4, the binding signal in data set [3] is 2.08 A405.

B5: E7a-33F (ssDNA)
DNA: ATACGGGAGCCAACACCACACACAGAGCGCCATGGACTCAGTCAGATGTGATGTAGAGCAGGTGTGACGGAT
As to B5, in data set [3], the binding signal turned out to be 2.07 A405.

B6: E7a-29F (ssDNA)
DNA: ATACGGCAGCCAACACCACACACATAGCGCTTTGTATTCAGCCGGATGTGATGTAGAGCAGGTGTGACGGAT
B6: in data set [3], the binding signal is 2.06 A405.

B7: Gn6-17F (ssDNA)
DNA: ATACGGGAGCCAACACCAAACTAGACAACCGCCCTTATACACACTGTACCAGTAGAGCAGGTGTGACGGAT
As for B7, the binding signal in data set [1] stood at 1.82 A405.

B8: E7b-1bF (ssDNA)
DNA: ATACGGGAGCCAACACCAGTCCGTTATGACATGTCCGGACCCGTACGCGTGTCAAAGAGCAGGTGTGACGGAT
Regarding B8, in data set [2], the binding signal was determined as 1.88 A405.

B9: Gn6-7bR (ssDNA)
DNA: ATCCGTCACACCTGCTCTCACATACTGGTCAGTCTCTATCGAGGCGGGCATTGGTGTTGGCTCCCGTAT
B9 had a binding signal in data set [1] of 1.69 A405.

B10: E7a-33R (ssDNA)
DNA: ATCCGTCACACCTGCTCTACATCACATCTGACTGAGTCCATGGCGCTCTGTGTGTGGTGTTGGCTCCCGTAT
B10: the binding signal in data set [3] stood at 2.12 A405.

B11: E7a-20R (ssDNA)
DNA: ATCCGTCACACCTGCTCTGGTTAAACGATATGGGGCCTGCCGTTATAACTGCGTGGTGTTGGCTCCCGTAT
As to B11, the binding signal in data set [3] amounted to 2.04 A405.

B12: Gn6-5F (ssDNA)
DNA: ATACGGGAGCCAACACCACGCCTTGTCTATTCTCTTAGTTTCCTGCTACTCCACAGAGCAGGTGTGACGGAT
Take B12: in data set [1], the binding signal turned out to be 1.75 A405.

B13: E7b-3R (ssDNA)
DNA: ATCCGTCACACCTGCTCTAAAGGATCCTTCTTAGCATCACATTATGATAAGATATGGTGTTGGCTCCCGTAT
As to B13, in data set [2], the binding signal amounted to 1.94 A405.

B14: Gn6-25R (ssDNA)
DNA: ATCCGTCACACCTGCTCTACAGTTAGAGCTTGCCGTATGCCTTTGTTAACATAATGGTGTTGGCTCCCGTAT
Turning to B14, the binding signal in data set [1] came out at 1.94 A405.

B15: E7c-23/25R (ssDNA)
DNA: ATCCGTCACACCTGCTCTACAGTTAGAGCTTGCCGTATGCCTTTGTTAACATAATGGTGTTGGCTCCCGTAT
On to B15, for which, in data set [4], the binding signal worked out at 2.12 A405.

B16: E7b-1aF (ssDNA)
DNA: ATACGGGAGCCAACACCATAATTCAAGAGGATTCCTCAAAATATGAAGCTTCCAGAGCAGGTGTGACGGAT
On to B16, for which the binding signal in data set [2] was found to be 1.83 A405.

B17: E7b-1aR (ssDNA)
DNA: ATCCGTCACACCTGCTCTGGAAGCTTCATATTTTGAGGAATCCTCTTGAATTATGGTGTTGGCTCCCGTAT
The molecule B17 registered a binding signal in data set [2] of 2 A405.

B18: E7a-8R (ssDNA)
DNA: ATCCGTCACACCTGCTCTCGCTGAAGCAAGACATTATCGGGACATTGCCGTGATGGTGTTGGCTCCCGTAT
With B18, the binding signal in data set [3] was determined as 2.04 A405.

B19: E7b-20/21R (ssDNA)
DNA: ATCCGTCACACCTGCTCTCGCTGAAGCAAGACATTATCGGGACATTGCCGTGATGGTGTTGGCTCCCGTAT
B19: the binding signal in data set [2] worked out at 1.78 A405.

B20: E7b-6R (ssDNA)
DNA: ATCCGTCACACCTGCTCTTAACCTATTTGGGTCGCGTTCTCAAAATAACTTCTGTGGTGTTGGCTCCCGTAT
Take B20: the binding signal in data set [2] came out at 1.86 A405.

B21: E7a-20F (ssDNA)
DNA: ATACGGGAGCCAACACCACGCAGTTATAACGGCAGGCCCCATATCGTTTAACCAGAGCAGGTGTGACGGAT
In the case of B21, in data set [3], the binding signal came to 2.02 A405.

B22: Gn6-16cF (ssDNA)
DNA: ATACGGGAGCCAACACCAGAGCACACTAATCATGGCGGCCCGGCGCATCCCGACAGAGCAGGTGTGACGGAT
B22 came in with a binding signal in data set [1] of 1.9 A405.

B23: E7a-11R (ssDNA)
DNA: ATCCGTCACACCTGCTCTCGTGTGATATATATGGTAAGGGGGGTTAGTACTGCTGGTGTTGGCTCCCGTAT
For B23, the binding signal in data set [3] came out at 2.07 A405.

B24: E7b-1bR (ssDNA)
DNA: ATCCGTCACACCTGCTCTTTGACACGCGTACGGGTCCGGACATGTCATAACGGACTGGTGTTGGCTCCCGTAT
As to B24, the binding signal in data set [2] was 2.07 A405.

B25: Gn6-30F (ssDNA)
DNA: ATACGGGAGCCAACACCATCCCACCGAATATCCGCTTTCCTCGTCCTCCTTTCAGAGCAGGTGTGACGGAT
For the molecule B25, the binding signal in data set [1] amounted to 1.75 A405.

B26: E7a-23F (ssDNA)
DNA: ATACGGGAGCCAACACCATGTCAGGACCTCCATCGCCCGGGCCCGCCGCCGCTGAGAGCAGGTGTGAC
On to B26, for which the binding signal in data set [3] is 2.23 A405.

B27: E7a-18F (ssDNA)
DNA: ATACGGGAGCCAACACCAACAGATGGATAAGGGGGAAACTGCCCATTCGGTTAGTAGAGCAGGTGTGACGGAT
As for B27, the binding signal in data set [3] amounted to 2.08 A405.

B28: Gn6-18F (ssDNA)
DNA: ATACGGGAGCCAACACCATACGCACCCGCATTCGTTAGTGTGTACAGTATGTCCAGAGCAGGTGTGACGGAT
In data set [1], B28 registered a binding signal of 1.86 A405.

B29: Gn6-16cR (ssDNA)
DNA: ATCCGTCACACCTGCTCTGTCGGGATGCGCCGGGCCGCCATGATTAGTGTGCTCTGGTGTTGGCTCCCGTAT
With B29, the binding signal in data set [1] came out at 1.67 A405.

B30: E7b-8a/10/16-19/23-25R (ssDNA)
DNA: ATCCGTCACACCTGCTCTTGACACGCGTACGGGTCCGGACATGTCATAACGGACTGGTGTTGGCTCCCGTAT
As for B30, the binding signal in data set [2] was determined as 2 A405.

B31: E7b-14R (ssDNA)
DNA: ATCCGTCACACCTGCTCTTGACGCGCGAACGGGTCCGGACACGTCATAACGGAATGGTGCTGGCTCCCGTAA
For B31, the binding signal in data set [2] was 1.9 A405.

Source of the values: PMC3517355.
